From paper PMC6441019, “Prospective discovery of small molecule enhancers of an E3 ligase-substrate interaction” (Nature Communications, 2019)
Blank lines part the entries; values can stand above or below the molecule they belong to. Where a SMILES comes first, the peptide text is derived from it. Where no end group is shown, it is not given here. [ ]: non-standard residue; d: D form. The star is where a group is joined. pS = N[C@@H](COP(=O)(O)O)C(=O)O; Cbz = O=C(OCc1ccccc1)*

How the values were obtained:
[1] = biological target: β-TrCP1 (recombinant β-TrCP/Skp1 complex) (UniProt Q9Y297); experiment: fluorescence polarisation titration; conditions: sites S33
[2] = biological target: T1, S33E/S37A mutant β-catenin (Homo sapiens, UniProt P35222+Q9Y297, S33E/S37A); experiment: β-catenin degradation in HEK293T cells stably expressing S33E/S37A β-catenin; assay type: cell-based; conditions: for effect of co-treatment on enhancer-induced degradation of S33E/S37A β-catenin: 5 μM MLN4924 or 10 μM MG132, added 30 min before NRX-252114
T1 construct: Full-length β-catenin (Myc/FLAG-tagged; Origene); expressed in transfected cells
T1 sequence (P35222 whole entry S33E/S37A, one chain of several): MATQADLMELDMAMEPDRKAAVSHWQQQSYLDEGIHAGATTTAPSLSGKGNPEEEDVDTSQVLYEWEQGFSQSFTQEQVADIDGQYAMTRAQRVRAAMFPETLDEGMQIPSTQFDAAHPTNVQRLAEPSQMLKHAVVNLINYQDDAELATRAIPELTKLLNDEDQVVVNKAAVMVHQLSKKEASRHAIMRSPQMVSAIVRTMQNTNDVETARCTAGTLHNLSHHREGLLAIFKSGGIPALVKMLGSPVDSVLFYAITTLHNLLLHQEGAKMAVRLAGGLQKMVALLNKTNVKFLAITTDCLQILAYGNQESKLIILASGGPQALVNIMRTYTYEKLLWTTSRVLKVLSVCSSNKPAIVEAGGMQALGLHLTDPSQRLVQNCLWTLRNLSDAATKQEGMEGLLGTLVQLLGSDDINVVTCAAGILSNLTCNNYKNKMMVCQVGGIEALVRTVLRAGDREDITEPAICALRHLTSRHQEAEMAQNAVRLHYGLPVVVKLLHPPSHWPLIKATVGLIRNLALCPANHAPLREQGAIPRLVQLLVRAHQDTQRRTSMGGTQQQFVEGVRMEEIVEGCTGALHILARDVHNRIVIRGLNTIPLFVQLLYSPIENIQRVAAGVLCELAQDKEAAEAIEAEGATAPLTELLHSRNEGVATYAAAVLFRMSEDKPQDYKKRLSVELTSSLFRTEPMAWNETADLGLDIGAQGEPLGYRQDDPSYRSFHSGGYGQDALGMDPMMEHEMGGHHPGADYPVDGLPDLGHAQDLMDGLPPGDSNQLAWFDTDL
T1 sequence (P63208 whole entry partner, one chain of several): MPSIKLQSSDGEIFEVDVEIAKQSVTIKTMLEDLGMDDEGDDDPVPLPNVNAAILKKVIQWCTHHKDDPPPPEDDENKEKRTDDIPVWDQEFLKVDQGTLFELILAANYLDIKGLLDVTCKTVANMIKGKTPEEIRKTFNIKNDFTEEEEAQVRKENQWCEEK
T1 sequence (Q13616 whole entry partner, one chain of several): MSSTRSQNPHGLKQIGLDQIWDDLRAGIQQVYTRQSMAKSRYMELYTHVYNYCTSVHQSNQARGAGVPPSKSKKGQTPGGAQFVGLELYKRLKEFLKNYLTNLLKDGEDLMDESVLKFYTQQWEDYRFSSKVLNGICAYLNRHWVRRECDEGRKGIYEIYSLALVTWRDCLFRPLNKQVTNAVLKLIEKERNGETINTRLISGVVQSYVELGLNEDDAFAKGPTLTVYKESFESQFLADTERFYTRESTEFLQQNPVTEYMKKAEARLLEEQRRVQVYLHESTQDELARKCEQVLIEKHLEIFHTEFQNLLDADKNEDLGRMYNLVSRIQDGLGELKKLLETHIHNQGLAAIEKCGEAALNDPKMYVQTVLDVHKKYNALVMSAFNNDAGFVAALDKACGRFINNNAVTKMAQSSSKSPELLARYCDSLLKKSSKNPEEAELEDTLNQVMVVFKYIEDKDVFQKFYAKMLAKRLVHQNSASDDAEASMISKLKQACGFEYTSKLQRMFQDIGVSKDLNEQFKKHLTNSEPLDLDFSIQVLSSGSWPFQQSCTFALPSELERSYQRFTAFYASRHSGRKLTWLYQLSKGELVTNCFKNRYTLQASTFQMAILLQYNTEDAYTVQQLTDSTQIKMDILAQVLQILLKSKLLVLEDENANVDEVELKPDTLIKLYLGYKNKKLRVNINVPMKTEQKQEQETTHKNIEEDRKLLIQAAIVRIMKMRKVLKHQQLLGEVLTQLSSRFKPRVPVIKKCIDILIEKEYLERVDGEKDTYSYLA
T1 sequence (P62877 whole entry partner, one chain of several): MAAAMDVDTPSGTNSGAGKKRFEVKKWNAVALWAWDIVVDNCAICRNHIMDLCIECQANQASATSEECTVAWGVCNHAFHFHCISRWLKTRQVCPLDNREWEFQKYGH
T1 sequence (Q15843 1-76 partner limits assumed, one chain of several): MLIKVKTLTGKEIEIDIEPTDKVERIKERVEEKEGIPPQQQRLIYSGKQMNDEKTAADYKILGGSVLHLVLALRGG
Method: HEK293T cells were plated in a 10 cm dish in regular growth media (DMEM + 10% FBS) and allowed to adhere to the plate overnight. The following day, cells were transfected with S33E/S37 β-catenin using FuGeneHD transfection reagent. Transfected cells were then selected with media containing 700 μg/ml Geneticin. A pooled population of selected cells were used for all described experiments.
HEK293T cells expressing S33E/S37A β-catenin were plated in six-well plates at a density of 9 × 10^5 cells/well. The following day, cells were incubated with compounds diluted in regular growth media to the appropriate concentration. The final concentration of DMSO for all cell treatments was kept at 0.5% or less. Cell treatments with the Nedd8 inhibitor (MLN4924) and the proteasome inhibitor (MG132) were performed at a final concentration of 5 μM and 10 μM respectively. Cycloheximide treatment was performed at a final concentration of 100 μg/ml.

[3] = biological target: T2, endogenous S37A mutant β-catenin (Homo sapiens, UniProt P35222+Q9Y297, S37A); experiment: Degradation of endogenous S37A β-catenin in TOV-112D cells; assay type: cell-based
T2 construct: host or cells: TOV-112D
T2 sequence (P35222 whole entry S37A, one chain of several): as the sequence (P35222 whole entry S33E/S37A, one chain of several) above, with E33S counted along it
T2 sequence (P63208 whole entry partner, one chain of several): as the sequence (P63208 whole entry partner, one chain of several) above
T2 sequence (Q13616 whole entry partner, one chain of several): as the sequence (Q13616 whole entry partner, one chain of several) above
T2 sequence (P62877 whole entry partner, one chain of several): as the sequence (P62877 whole entry partner, one chain of several) above
T2 sequence (Q15843 1-76 partner limits assumed, one chain of several): as the sequence (Q15843 1-76 partner limits assumed, one chain of several) above

[4] = biological target: T3, pSer33/Ser37 β-catenin:β-TrCP interaction (Homo sapiens, UniProt P35222+Q9Y297); experiment: SPR binding enhancement assay
T3 construct: titrating BODIPY-FL-labeled β-catenin peptides (residues 17-48) against 300 pM β-TrCP; 6xHis-SMT3 (N, cleaved yes); made in house; host or cells: E. coli (co-expressed with BirA)
T3 sequence (Q9Y297 1-569 isoform Q9Y297-2, one chain of several): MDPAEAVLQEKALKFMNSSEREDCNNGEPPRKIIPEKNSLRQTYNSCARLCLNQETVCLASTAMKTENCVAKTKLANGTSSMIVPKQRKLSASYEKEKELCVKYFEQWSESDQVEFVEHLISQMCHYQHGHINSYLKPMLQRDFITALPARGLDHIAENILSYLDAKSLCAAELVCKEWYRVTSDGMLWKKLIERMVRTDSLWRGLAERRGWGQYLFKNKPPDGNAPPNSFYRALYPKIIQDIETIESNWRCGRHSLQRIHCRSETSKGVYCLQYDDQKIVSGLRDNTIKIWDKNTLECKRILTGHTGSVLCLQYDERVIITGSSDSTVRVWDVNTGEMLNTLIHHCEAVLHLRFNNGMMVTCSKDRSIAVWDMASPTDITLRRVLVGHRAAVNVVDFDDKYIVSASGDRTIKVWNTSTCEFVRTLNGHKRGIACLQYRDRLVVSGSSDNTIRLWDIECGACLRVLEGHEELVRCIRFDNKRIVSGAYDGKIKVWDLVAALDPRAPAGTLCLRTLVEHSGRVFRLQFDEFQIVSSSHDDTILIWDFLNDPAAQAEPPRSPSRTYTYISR
T3 sequence (P63208 whole entry partner, one chain of several, the tested form may be a part): as the sequence (P63208 whole entry partner, one chain of several) above
Method: SPR binding assays were performed on a GE Healthcare Biacore T200 using a Series B Biacore Sensor Chip SA. […] 333 nM β-TrCP/Skp1 and titrated compound were preincubated and flowed at a rate of 30 μl/min in 10 mM HEPES, 150 mM NaCl, 0.05% Surfactant P20, 1 mM TCEP, and 2% DMSO at pH 7.4 and 20 °C. Engagement of the ternary complex was assessed with a contact and dissociation time of 120 s. […] Errors are standard error of the fit.

[5] = biological target: T4, pSer33/Ser37 β-catenin peptide binding to β-TrCP (Homo sapiens, UniProt P35222+Q9Y297); experiment: TR-FRET peptide binding and cooperativity assay, pSer33/Ser37 peptide; conditions: 500 μM NRX-1532; 300 pM β-TrCP; read-out: KD pS33/S37
T4 construct: titrating BODIPY-FL-labeled β-catenin peptides (residues 17-48) against 300 pM β-TrCP; 6xHis-SMT3 (N, cleaved yes); made in house; host or cells: E. coli (co-expressed with BirA)
T4 sequence (Q9Y297 1-569 isoform Q9Y297-2, one chain of several): as the sequence (Q9Y297 1-569 isoform Q9Y297-2, one chain of several) above
T4 sequence (P63208 whole entry partner, one chain of several, the tested form may be a part): as the sequence (P63208 whole entry partner, one chain of several) above
Method: (§1) Compounds were incubated in a 20 μl reaction volume with 300 pM biotinylated β-TrCP/Skp1 preincubated with 1.2 nM terbium-coupled streptavidin (Cisbio) and BODIPY-FL labeled β-catenin peptides (see figure legends for peptide details) in a white 384-well microplate (Perkin Elmer ProxiPlate), using a PBS buffer containing 0.01% Triton X-100 and 2 mM DTT with 2% final DMSO. […] Following 1-h incubation, plates were read for TR-FRET signal after excitation at 320 nm and read at 520 and 620 nm using an EnVision plate reader (Perkin Elmer). TR-FRET signal was calculated using a 520/620 nm ratio. Binding and enhancement data were fit to a standard Hill equation (Y = Bmin + (Bmax − Bmin)(X^h)/(X^h + EC50^h)) in Prism (GraphPad). Errors are standard error of the fit.

[6] = pKa determination (fast UV); assay type: physicochemical; conditions: methanol:water co-solvent
Method: The pKa values were determined using the fast UV (spectrometric) technique. Samples were titrated in triplicate under methanol:water co-solvent conditions (with MeOH:water mixing ratios varied from 1:1 to 1:4) in the pH range 2.0–12.0 at concentrations of 15 to 30 μM and at a temperature of 25 °C. Aqueous pKa values were determined by Yasuda-Shedlovsky extrapolation from the individual determined results.

[7] = biological target: biotinylated β-TrCP1-avi tag/Skp1 complex (UniProt Q9Y297); experiment: FRET or BRET; TR-FRET, no compound: BODIPY-FL β-catenin peptide titrated against 300 pM biotinylated β-TrCP/Skp1 on 1.2 nM terbium-streptavidin; PBS, 0.01% Triton X-100, 2 mM DTT, 2% DMSO; 1 h
[8] = biological target: β-TrCP1 (recombinant β-TrCP/Skp1 complex) (UniProt Q9Y297); experiment: TR-FRET peptide titration, no compound; conditions: reference: Ser33/S37A peptide; sites S33
[9] = biological target: T5, pSer33/S37A β-catenin peptide binding to β-TrCP (Homo sapiens, UniProt P35222+Q9Y297, S37A); experiment: TR-FRET binding enhancement assay, pSer33/S37A peptide
T5 construct: titrating BODIPY-FL-labeled β-catenin peptides (residues 17-48) against 300 pM β-TrCP; 6xHis-SMT3 (N, cleaved yes); made in house; host or cells: E. coli (co-expressed with BirA)
T5 sequence (Q9Y297 1-569 isoform Q9Y297-2, stated change not applied): as the sequence (Q9Y297 1-569 isoform Q9Y297-2, one chain of several) above
T5 sequence (P63208 whole entry partner, the tested form may be a part): as the sequence (P63208 whole entry partner, one chain of several) above
T5 sequence (P35222 17-48 S37A limits assumed): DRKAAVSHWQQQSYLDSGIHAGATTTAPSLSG
Method: as §1

[10] = biological target: T6, S33E/S37A β-catenin peptide binding to β-TrCP (Homo sapiens, UniProt P35222+Q9Y297, S33E/S37A); experiment: TR-FRET binding enhancement assay, S33E/S37A peptide; conditions: 1% binding saturation
T6 construct: titrating BODIPY-FL-labeled β-catenin peptides (residues 17-48) against 300 pM β-TrCP; 6xHis-SMT3 (N, cleaved yes); made in house; host or cells: E. coli (co-expressed with BirA)
T6 sequence (Q9Y297 1-569 isoform Q9Y297-2, stated change not applied): as the sequence (Q9Y297 1-569 isoform Q9Y297-2, one chain of several) above
T6 sequence (P63208 whole entry partner, the tested form may be a part): as the sequence (P63208 whole entry partner, one chain of several) above
T6 sequence (P35222 17-48 S33E/S37A limits assumed): as the sequence (P35222 17-48 S37A limits assumed) above, with S17E counted along it
Method: as §1

[11] = Solubility (qualitative remark); assay type: physicochemical
[12] = biological target: Myc/FLAG-tagged S33E/S37A phosphomimetic full-length β-catenin (UniProt P35222)
[13] = biological target: β-TrCP1 (recombinant β-TrCP/Skp1 complex) (UniProt Q9Y297); experiment: peptide binding assay, type not said; conditions: reference: pSer33/pSer37 peptide; sites S37
[14] = biological target: T7, biotinylated β-TrCP/Skp1 complex (6xHis-SMT3-β-TrCP1-avi tag/Skp1, for TR-FRET) (UniProt Q9Y297-2 1-569; P63208 1-163, biotin on the avi tag (co-expressed with BirA)); experiment: AlphaScreen or HTRF; TR-FRET: BODIPY-FL-labeled β-catenin peptides titrated against 300 pM biotinylated β-TrCP/Skp1 on 1.2 nM terbium-coupled streptavidin; PBS, 0.01% Triton X-100, 2 mM DTT, 2% DMSO; 1 h; one-site binding model; no compound; conditions: both partners purified
T7 construct: β-TrCP1; Skp1; Held on terbium-coupled streptavidin in the TR-FRET assay; also called β-TrCP complex; source: E. coli, co-expressed from pCDF-Duet1 with BirA and d-biotin, purified (Ni-NTA, ULP1 cleavage, HiTrap SP, SEC); not shown: His6, N-terminal, cleaved; SMT3, N-terminal, cleaved; avi tag, C-terminal, kept
T7 sequence (P63208 whole entry, one chain of several): as the sequence (P63208 whole entry partner, one chain of several) above

β-TrCP = biological target: T8, β-TrCP (Homo sapiens, UniProt Q9Y297); experiment: TR-FRET
T8 chain: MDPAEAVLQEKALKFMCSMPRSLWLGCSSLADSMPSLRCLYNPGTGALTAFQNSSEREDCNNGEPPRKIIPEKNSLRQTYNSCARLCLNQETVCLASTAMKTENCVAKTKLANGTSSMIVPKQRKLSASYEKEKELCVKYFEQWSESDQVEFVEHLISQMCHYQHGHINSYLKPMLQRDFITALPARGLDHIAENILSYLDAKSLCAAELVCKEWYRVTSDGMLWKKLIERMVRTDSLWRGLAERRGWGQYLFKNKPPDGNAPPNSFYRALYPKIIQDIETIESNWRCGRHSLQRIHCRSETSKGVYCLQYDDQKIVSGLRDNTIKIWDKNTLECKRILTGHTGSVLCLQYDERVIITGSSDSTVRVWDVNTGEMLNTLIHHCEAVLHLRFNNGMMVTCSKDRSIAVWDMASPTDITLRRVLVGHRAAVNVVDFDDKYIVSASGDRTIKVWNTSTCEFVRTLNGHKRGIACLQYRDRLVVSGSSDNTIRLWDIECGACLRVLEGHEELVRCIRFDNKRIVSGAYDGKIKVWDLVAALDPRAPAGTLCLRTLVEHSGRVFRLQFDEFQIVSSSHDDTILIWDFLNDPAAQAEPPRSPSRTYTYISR

KD ([1]; reference: pSer33/pSer37 peptide): weaker; reference 2 nM
Molecule: β-catenin 17-48 (from UniProt P35222) Ser33/pSer37 peptide

concentration at which degradation of S33E/S37A mutant β-catenin starts ([2]; HEK293T stable line, 6 h, western): ~ 35 μM
degradation of endogenous S37A mutant β-catenin [3]: did not induce degradation
Molecule: COc1cc2c(cc1OC)CN(C(=O)c1c(Sc3c(Cl)cccc3Cl)cc(C(F)(F)F)[nH]c1=O)C2 [NRX-252262]

binding against the reference ([1]; reference: non-phosphorylated peptide (Ser33/Ser37)): stronger
Molecule: β-catenin 17-48 (from UniProt P35222) pSer33/Ser37 peptide

effect of co-treatment on enhancer-induced degradation of S33E/S37A β-catenin [2]: completely blocked
Molecule: NS(=O)(=O)OC[C@@H]1C[C@@H](n2ccc3c(N[C@H]4CCc5ccccc54)ncnc32)C[C@@H]1O [MLN4924, reference compound]

Molecule: CC(C)C[C@@H](C=O)NC(=O)[C@H](CC(C)C)NC(=O)[C@H](CC(C)C)NC(=O)OCc1ccccc1 [MG132, reference compound] (Cbz-Leu-Leu-Leu-aldehyde)
effect of co-treatment on enhancer-induced degradation of S33E/S37A β-catenin [2]: completely blocked

EC50 [4]: 129000 ± 33000 nM
Kd [5]: 68 nM
pKa [6]: 5.6
Molecule: O=C(Nc1cccc(-c2ccn[nH]2)c1)c1ccc(C(F)(F)F)[nH]c1=O [NRX-1532]

Kd [7]: > 5000 nM
fold decrease in binding affinity relative to the pSer33/S37A peptide [7]: > 10 fold
Molecule: BODIPY-FL-labeled S33E/S37A phosphomimetic β-catenin peptide (residues 17-48) (from UniProt P35222 17-48)

binding against the reference [8]: stronger
Molecule: β-catenin 17-48 (from UniProt P35222) pSer33/S37A peptide

EC50 [9]: 163 ± 6 nM
EC50 [10]: 6700 ± 700 nM
Molecule: CN(C)C(=O)c1cccc(NC(=O)c2c(Sc3c(Cl)cccc3Cl)cc(C(F)(F)F)[nH]c2=O)c1 [NRX-103095]

solubility relative to NRX-1532 [11]: more soluble
Molecule: O=C(Nc1cccc(-c2nnn[nH]2)c1)c1ccc(C(F)(F)F)[nH]c1=O [NRX-1933]

degradation of stably expressed Myc/FLAG S33E/S37A β-catenin in HEK293T cells, NRX-252114 for 6 h, western blot [12]: 50 µM
degradation of stably expressed Myc/FLAG S33E/S37A β-catenin in HEK293T cells, NRX-252262 for 6 h, western blot [12]: 35 µM
Molecule: endogenous β-TrCP of HEK293T cells (from UniProt Q9Y297 1-605) (natural protein)

binding against the reference [13]: weaker
Molecule: β-catenin (from UniProt P35222) pSer33/S37A peptide

Kd [14]: 154 nM
B1: BODIPY-FL-labeled pSer33/S37C β-catenin peptide (residues 17-48) (peptide)
peptide: Ac-CDRKAAVSHWQQQSYLD[pS]GIHCGATTTAPSLSG
modifications: cysteine pairing not given here; also: BODIPY-FL label, site not given here
notes: added N-terminal cysteine of the peptide list, not part of β-catenin 17-48; as the printed 17-48 peptide with this change; also called pSer33/Cys37; pS33/S37C

Kd [14]: 23 nM
B2: BODIPY-FL-labeled pSer33/S37F β-catenin peptide (residues 17-48) (peptide)
peptide: Ac-CDRKAAVSHWQQQSYLD[pS]GIHFGATTTAPSLSG
modifications: also: BODIPY-FL label, site not given here
notes: added N-terminal cysteine of the peptide list, not part of β-catenin 17-48; as the printed 17-48 peptide with this change; also called pSer33/Phe37; pS33/S37F

Kd (β-TrCP): 180 nM
B3: β-catenin peptide (protein)
chain: ATQADLMELDMAMEPDRKAAVSHWQQQSYLDSGIHSGATTTAPSLSGKGNPEEEDVDTSQVLYEWEQGFSQSFTQEQVADIDGQYAMTRAQRVRAAMFPETLDEGMQIPSTQFDAAHPTNVQRLAEPSQMLKHAVVNLINYQDDAELATRAIPELTKLLNDEDQVVVNKAAVMVHQLSKKEASRHAIMRSPQMVSAIVRTMQNTNDVETARCTAGTLHNLSHHREGLLAIFKSGGIPALVKMLGSPVDSVLFYAITTLHNLLLHQEGAKMAVRLAGGLQKMVALLNKTNVKFLAITTDCLQILAYGNQESKLIILASGGPQALVNIMRTYTYEKLLWTTSRVLKVLSVCSSNKPAIVEAGGMQALGLHLTDPSQRLVQNCLWTLRNLSDAATKQEGMEGLLGTLVQLLGSDDINVVTCAAGILSNLTCNNYKNKMMVCQVGGIEALVRTVLRAGDREDITEPAICALRHLTSRHQEAEMAQNAVRLHYGLPVVVKLLHPPSHWPLIKATVGLIRNLALCPANHAPLREQGAIPRLVQLLVRAHQDTQRRTSMGGTQQQFVEGVRMEEIVEGCTGALHILARDVHNRIVIRGLNTIPLFVQLLYSPIENIQRVAAGVLCELAQDKEAAEAIEAEGATAPLTELLHSRNEGVATYAAAVLFRMSEDKPQDYKKRLSVELTSSLFRTEPMAWNETADLGLDIGAQGEPLGYRQDDPSYRSFHSGGYGQDALGMDPMMEHEMGGHHPGADYPVDGLPDLGHAQDLMDGLPPGDSNQLAWFDTDL
modifications: 20 µM NRX-252114
